In the supplement of paper PMC7125110:
± gives the standard error. For some of these results: Fewer inactive variants are shown than the library holds.

B1: glmS ribozyme (parent)
chain: AUAAAAGCGCCAGAACUACAGAAAUGUAGUUGACGAGGAGGAGGUUUAUCGAAUUUUCGGCGGAUGCCUCCAAA

Experiments:
Details in all cases: with glucosamine-6-phosphate
glucosamine-6-phosphate [1] = variants of: B1; assay: kcat; higher = faster cleavage; RNA array
In short: (§1)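 Over ~14 h at 37 °C, tiles were imaged as glucosamine-6-phosphate (40 μM to 10 mM) in HEPES/KCl/Mg(OAc)2 buffer flowed across sequenced MiSeq chips. The chips carried barcoded ribozyme variants transcribed in situ by E. coli RNA polymerase and tracked with a hybridised Cy3 probe. After normalisation to baseline and to non-cleaving reference variants, one- or two-exponential decay fits of per-tile medians gave kobs. kcat and KM followed from weighted Michaelis–Menten fits across concentrations.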

glucosamine-6-phosphate [2] = variants of: B1; assay: KM; higher = weaker cofactor use; RNA array
In short: as §1

glucosamine-6-phosphate [3] = variants of: B1; assay: self-cleavage kobs at 160 uM GlcN6P; higher = faster cleavage; RNA array
In short: as §1

glucosamine-6-phosphate [4] = variants of: B1; assay: self-cleavage kobs at 640 uM GlcN6P; higher = faster cleavage; RNA array
In short: as §1

glucosamine-6-phosphate [5] = variants of: B1; assay: self-cleavage kobs at 2500 uM GlcN6P; higher = faster cleavage; RNA array
In short: as §1

glucosamine-6-phosphate [6] = variants of: B1; assay: self-cleavage kobs at 10000 uM GlcN6P; higher = faster cleavage; RNA array
In short: as §1

glucosamine-6-phosphate [7] = variants of: B1; assay: self-cleavage kobs at 40 uM GlcN6P; higher = faster cleavage; RNA array
In short: as §1

Variant | kcat (glucosamine-6-phosphate [1]) [s⁻¹] | KM (glucosamine-6-phosphate [2]) [µM] | self-cleavage kobs at 160 uM GlcN6P (glucosamine-6-phosphate [3]) [s⁻¹] | self-cleavage kobs at 640 uM GlcN6P (glucosamine-6-phosphate [4]) [s⁻¹] | self-cleavage kobs at 2500 uM GlcN6P (glucosamine-6-phosphate [5]) [s⁻¹] | self-cleavage kobs at 10000 uM GlcN6P (glucosamine-6-phosphate [6]) [s⁻¹] | self-cleavage kobs at 40 uM GlcN6P (glucosamine-6-phosphate [7]) [s⁻¹]
A6G A15G | 0.000647 ± 5.3e-05 | 2540 ± 370 | 3.49e-05 ± 1.1e-05 | 0.000131 ± 1.7e-05 | 0.000324 ± 4.3e-05 | 0.000514 ± 5.4e-05 | 
C10G U47G G60C | 0.000977 ± 0.00037 |  | 0.000156 ± 5e-05 | 0.000256 ± 7.5e-05 | 0.000552 ± 0.00013 | 0.0011 ± 0.00032 | 
C10A C61G | < 1e-05 |  |  |  |  |  | 
A6U G66A | 0.000205 ± 1.7e-05 | 3170 ± 600 |  | 3.28e-05 ± 1.3e-05 | 9.12e-05 ± 1.4e-05 | 0.000155 ± 1.9e-05 | 
A6U G66U | < 1e-05 | 1280 ± 630 |  |  |  |  | 
A6U A15C A48U U69G | 2.37e-05 ± 7.1e-06 |  |  |  |  |  | < 1e-05
C10A C50U | < 1e-05 |  |  |  |  | < 1e-05 | 
C8A G37U C70A | 0.00017 ± 4.3e-05 |  |  | 0.000214 ± 6.2e-05 | 0.000331 ± 0.00011 | 0.000139 ± 3.4e-05 | 7.9e-05 ± 2.3e-05
C11A A15U U65G C71U | < 1e-05 |  |  |  |  |  | 
C10U U54A | 4.72e-05 ± 5.3e-06 |  | < 1e-05 |  | 4.32e-05 ± 2.1e-05 | 4.37e-05 ± 9.7e-06 | < 1e-05
C11A A14G U65G | 0.000152 ± 6.2e-06 | 1370 ± 200 |  | 5.21e-05 ± 1.7e-05 | 9.32e-05 ± 2e-05 | 0.000135 ± 1.7e-05 | 
C10U A36G | < 1e-05 |  |  | < 1e-05 |  | < 1e-05 | < 1e-05
A6G G43C C68G | 0.000785 ± 0.00019 | 1000 ± 470 | 9.17e-05 ± 2.6e-05 | 0.000423 ± 8.3e-05 | 0.000399 ± 0.00011 | 0.000819 ± 0.00015 | 3.71e-05 ± 1.7e-05
A6G A42G | 0.000724 ± 0.00013 | 2730 ± 960 | 2.26e-05 ± 1.1e-05 | 0.000175 ± 2.3e-05 | 0.000329 ± 4.6e-05 | 0.000569 ± 5.1e-05 | 
C10A U54G | < 1e-05 |  |  |  |  |  | < 1e-05
A6C U31G | 2.39e-05 ± 9.7e-07 | 3730 ± 510 |  |  |  | 1.74e-05 ± 5.6e-06 | 
A6G C68U | 0.000115 ± 2.9e-06 | 728 ± 79 |  | 5.56e-05 ± 1.1e-05 | 8.68e-05 ± 1.5e-05 | 0.000107 ± 1e-05 | 
C11A C58A | 2e-05 ± 2.2e-07 | 1680 ± 98 | < 1e-05 | < 1e-05 |  |  | < 1e-05
A6G A53U | 0.000303 ± 3.8e-05 | 1940 ± 560 |  | 6.78e-05 ± 1.6e-05 | 0.000191 ± 2.7e-05 | 0.000241 ± 3.5e-05 | 

Variant | kcat (glucosamine-6-phosphate [1]) [s⁻¹] | KM (glucosamine-6-phosphate [2]) [µM] | self-cleavage kobs at 160 uM GlcN6P (glucosamine-6-phosphate [3]) [s⁻¹] | self-cleavage kobs at 640 uM GlcN6P (glucosamine-6-phosphate [4]) [s⁻¹] | self-cleavage kobs at 2500 uM GlcN6P (glucosamine-6-phosphate [5]) [s⁻¹] | self-cleavage kobs at 10000 uM GlcN6P (glucosamine-6-phosphate [6]) [s⁻¹] | self-cleavage kobs at 40 uM GlcN6P (glucosamine-6-phosphate [7]) [s⁻¹]
C11A U30A U45G | 2.81e-05 ± 1.1e-06 | 3690 ± 410 |  |  |  |  | 
A6U U31A | 0.000122 ± 2.6e-05 |  |  |  | 8.83e-05 ± 2.1e-05 | 9.85e-05 ± 2.2e-05 | 
A6U U31G | 8.41e-05 ± 1e-05 |  |  |  | 7.42e-05 ± 1.9e-05 | 7.27e-05 ± 1.2e-05 | < 1e-05
A6C A14G | 0.000252 ± 8.5e-06 | 1220 ± 210 |  |  | 0.000164 ± 3.1e-05 | 0.000226 ± 2.3e-05 | 
C8A G60A | < 1e-05 | 86.3 ± 25 | < 1e-05 |  |  |  | 
A6C C70G | 1.09e-05 ± 2.1e-06 |  |  |  |  |  | 
C10A U69C | 1.7e-05 ± 1.9e-06 |  |  |  |  |  | 
C10U G63A | < 1e-05 |  |  | < 1e-05 | < 1e-05 |  | 
C8A G29A C50G G66A C70G | 7.47e-05 ± 2e-05 |  | 9e-05 ± 1.5e-05 | 4.95e-05 ± 1.7e-05 | 7.56e-05 ± 1.6e-05 |  | 
G7A A39G | 0.000288 ± 6.2e-05 |  | < 1e-05 |  |  | 2.51e-05 ± 7.3e-06 | 
C11A A39U | 0.000122 ± 2.3e-05 |  |  |  | 7e-05 ± 9.6e-06 | 9.43e-05 ± 1.2e-05 | 
G7A A36U A39C C68A C71G | 1e-05 ± 4e-06 |  |  |  |  |  | 
A6C A53U | 8.96e-05 ± 2.4e-06 | 3600 ± 220 |  |  | 3.64e-05 ± 7.4e-06 | 6.61e-05 ± 1.1e-05 | 
G9A U45A | 1.6e-05 ± 1.8e-06 |  | < 1e-05 |  |  |  | 
A6U C16U C68U | 9.14e-05 ± 3.2e-06 | 625 ± 120 |  |  | 7.4e-05 ± 1.9e-05 | 8.55e-05 ± 2e-05 | 
A6C U54G | 0.000119 ± 4.3e-06 | 4980 ± 410 |  |  | 3.94e-05 ± 9.9e-06 | 7.93e-05 ± 1.1e-05 | 
C11A A64G | 0.000168 ± 1.1e-05 | 1190 ± 250 |  | 5.53e-05 ± 1.3e-05 | 0.000135 ± 2.7e-05 | 0.000147 ± 1.6e-05 | 
C8A C10A G38A C50G | 5.64e-05 ± 2.2e-05 |  | 8.75e-05 ± 1.8e-05 | 9.23e-05 ± 1.7e-05 |  | 3.67e-05 ± 1e-05 | 3.68e-05 ± 1.4e-05
C11A G41A | < 1e-05 | 2450 ± 650 | < 1e-05 | < 1e-05 |  |  | 
